Results reported in patent US7563864B2, “Prolyl endopeptidase mediated destruction of T cell epitopes in whole gluten” (Celiac Sprue Research Foundation, priority 2004, dated 2009).

How the values were obtained:
[1] = test system: polyclonal T cell lines derived from small intestinal biopsies of Celiac Sprue patients; test: T cell assays, 14 polyclonal T cell lines taken together; type: cell-based, human; settings: PEP in combination with gastric and pancreatic enzymes and brush border membrane enzymes; in most cases
Procedure: Gluten treatment with gastric and pancreatic enzymes—Wheat gluten flour (3.0 g) was added to 100 ml of water with addition of HCl to achieve a stable suspension at pH 2.0. Pepsin (Pepsin NF powder, 1:10000, 60 mg) was mixed in to the gluten suspension and the gluten-pepsin mixture was shaken constantly at 37° C. for 2 h. After the pepsin treatment had been completed, 350 mg of Na2HPO4 were added and the pH adjusted to 7.9 by addition of 0.1 M NaOH. Trypsin/Chymotrypsin (38 mg) were added and the mixture was shaken again at 37° C. for 2 h and then heated to >95° C. for 10 min. After cooling to room temperature, 74 μL of the mixture was treated with Elastase (20 μL, 1 mg/ml) and the mixture was diluted to 1.7 mg/ml using PBS buffer, pH=7.5. The mixture was maintained at 37° C. After 2 h the digested gluten suspension was heated to 95° C. for 10 minutes and cooled to room temperature. After this, 20 μL of Carboxypeptidase A were added and incubated for 2 h at 37° C., and subsequently heat deactivated. […]
T cell assays—The generation of polyclonal gluten-specific T cell lines derived from ex vivo gluten challenged small intestinal biopsy specimens of adult Celiac Sprue patients have been described elsewhere. […] The proliferation in the wells was evaluated by ^3H thymidine incorporation from 48-72 hours after the addition of the T cells.

TCC 387 E9 = test: T cell clone assay, α-I specific clone; type: cell-based, human; settings: clone 387E9; FIGS. 6A and 6B; after 60 min PEP treatment
Procedure: (§1) Prolyl endopeptidase (PEP) and Brush Border Membrane (BBM) treatment—Recombinant PEP (Sp. Act ˜40 U/mg) was added at a ratio of 200 mU/mg of the PTC-digested gluten substrate, and incubated at 37° C. for 15 min to 1 h and then heat de-activated, depending on the sample. Subsequently BBM (65 mU (DPP IV activity)/mg substrate) was added and the mixture was incubated for 1 h and heat de-activated. Control samples contained PEP and BBM buffer solutions without the enzymes.
(§2) T cell assays—The generation of polyclonal gluten-specific T cell lines derived from ex vivo gluten challenged small intestinal biopsy specimens of adult Celiac Sprue patients have been described elsewhere. For this study 14 different intestinal T cell lines derived from 13 DQ2+celiac patients were selected based on two basic criteria; effective recognition of TG2-treated digests of gluten and significant responses to at least two different gluten epitopes (Table 2). The generation of intestinal T cell clones and the epitope specificity of these clones, except TCC 387.3, has been described elsewhere (10). The TCC 387.3 recognizes a TG2-dependent epitope, defined as γ-VI that is contained within residues 62-72 (PQQPFPQQPQQ) of recombinant γ-5 gliadin. […] The proliferation in the wells was evaluated by ^3H thymidine incorporation from 48-72 hours after the addition of the T cells.

T cell clone 430.1.135 = test: T cell clone assay, α-II specific clone; type: cell-based, human; settings: FIGS. 6A and 6B
Procedure: as §1, §2

TCC 370 E3.19 = test: T cell clone assay, α-III specific clone; type: cell-based, human; settings: clone 370E3.19; FIGS. 6A and 6B
Procedure: as §1, §2

TCC 387.3 = test: T cell clone assay, γ-VI specific clone; type: cell-based, human; settings: FIG. 6B
Procedure: as §1, §2

PEP activity assay = type: biochemical; settings: recombinant PEP; pH 7.5, 37° C.
Procedure: Carboxypeptidase A: 995 μL 1.0 mM Hippuryl-L-Phe in 25 mM Tris and 500 mM NaCl, pH 7.5 was mixed with 5 μL Carboxypeptidase A (0.2 mg/ml). Absorption at 254 nm was recorded for 2′, every 10″. One unit hydrolyzes 1 μmol of Hippuryl-L-Phe per min at pH 7.5 and 25° C. Extinction coefficient 0.36 cm^2/μmol at 254 nm. PEP: To 10 μL Z-Gly-Pro-p-Nitroanilide 16.8 mg/ml in dioxane were added 70 μL dioxane, 120 μL water and 800 μL PBS buffer. This substrate solution was incubated at 37° C. for 10′; then 0.2-2 μL PEP were added and the absorption at 410 nm was recorded for 2′, every 10″. One unit hydrolyzes 1 μmol of Z-Gly-Pro-p-Nitroanilide per min at pH 7.5 and 37° C. Extinction coefficient 8.8 cm^2/μmol at 410 nm.

B1: PEP: Recombinant prolyl endopeptidase, Flavobacterium meningosepticum enzyme (protein, UniProt P27028 21-705, looked up)
Prolyl endopeptidase: QNSNVLKYPETKKVSHTDTYFGTQVSDPYRWLEDDRAEDTKAWVQQEVKFTQDYLAQIPFRDQLKKQLMDIWNYEKISAPFKKGKYTYFSKNDGLQAQSVLYRKDAAGKTEVFLDPNKFSEKGTTSLASVSFNKKGTLVAYSISEGGSDWNKIIILDAETKKQLDETLLDVKFSGISWLGDEGFFYSSYDKPKEGSVLSGMTDKHKVYFHKLGTKQSQDELIIGGDKFPRRYIGAYVTDDQRYLVVSAANATNGNELYIKDLKNKTDFIPIITGFDSNVNVADTDGDTLYLFTDKDAPNKRLVKTTIQNPKAETWKDVIAETSEPLEINTGGGYFFATYMKDAIDQVKQYDKNGKLVRAIKLPGSGNASGFGGEKTEKDLYYSFTNYITPPTIFKYNVTTGNSEVYQKPKVKFNPENYVSEQVFYTSSDGTKIPMMISYKKGLKKDGKNPTILYSYGGFNISLQPAFSVVNAIWMENGGIYAVPNIRGGGEYGKKWHDAGTKMQKKNVFNDFIAAGEYLQKNGYTSKEYMALSGRSNGGLLVGATMTMRPDLAKVAFPGVGVLDMLRYNKFTAGAGWAYDYGTAEDSKEMFEYLKSYSPVHNVKAGTCYPSTMVITSDHDDRVVPAHSFKFGSELQAKQSCKNPILIRIETNAGHGAGRSTEQVVAENADLLSFALYEMGIKSLK
immune response of patient derived intestinal T cells, relative to the response induced by positive controls [1]: less than 2%
T cell clone response to treated gluten: destruction of the α-I epitope (TCC 387 E9): retains some activity
T cell clone response to treated gluten: destruction of the α-II epitope (T cell clone 430.1.135): almost completely destroyed at the earliest time point
T cell clone response to treated gluten: destruction of the α-III epitope (TCC 370 E3.19): almost completely destroyed at the earliest time point
T cell clone response to treated gluten: destruction of the γ-VI epitope (TCC 387.3): persist for longer durations
specific activity (Sp. Act) (PEP activity assay): ~40 U/mg
